From the Human Domainome abundance scans (Beltran et al. 2025)
± gives the uncertainty stated by the source.

B1: E3 ubiquitin-protein ligase NEDD4, residues 836 to 881; numbered along this chain, P46934 (parent)
chain: EIEQGFLPKGWEVRHAPNGRPFFIDHNTKTTTWEDPRLKIPAHLRG
B2: V(D)J recombination-activating protein 2, residues 415 to 491; numbered along this chain, P55895 (parent)
chain: YWITCCPTCDVDINTWVPFYSTELNKPAMIYCSHGDGHWVHAQCMDLAERTLIHLSAGSNKYYCNEHVEIARALHTP

Variants of: B1
Experiment: abundance fitness (aPCA) (normalised: wild type 0, dead -1); higher = more abundant; growth selection in yeast, the domain comes from the species named
Details: Homo sapiens

| Variant | abundance fitness |
| --- | --- |
| E1T | 0.091 ± 0.12 |
| E1Y | 0.202 ± 0.45 |
| E1N | 0.381 ± 0.29 |
| E1R | -0.07 ± 0.2 |
| E1K | -0.095 ± 0.48 |
| E1A | -0.259 ± 0.12 |
| E1V | -0.153 ± 0.076 |
| E1D | -0.219 ± 0.14 |
| E1G | -0.27 ± 0.046 |
| Q4E | 0.12 ± 0.077 |
| Q4D | -0.285 ± 0.11 |
| Q4W | -0.298 ± 0.078 |
| Q4F | 0.067 ± 0.074 |
| Q4P | -0.116 ± 0.042 |
| Q4I | -0.335 ± 0.084 |
| Q4A | -0.146 ± 0.048 |
| Q4K | 0.127 ± 0.067 |
| Q4Y | -0.016 ± 0.083 |
| Q4N | -0.092 ± 0.059 |
| Q4H | -0.172 ± 0.059 |
| Q4L | -0.062 ± 0.051 |
| Q4R | -0.002 ± 0.042 |

| Variant | abundance fitness |
| --- | --- |
| Q4C | 0.012 ± 0.057 |
| Q4G | -0.09 ± 0.045 |
| Q4M | -0.387 ± 0.084 |
| Q4S | -0.024 ± 0.043 |
| Q4T | -0.242 ± 0.075 |
| G5H | -0.313 ± 0.095 |
| G5F | -0.158 ± 0.064 |
| G5C | -0.21 ± 0.043 |
| G5I | -0.219 ± 0.052 |
| G5E | -0.141 ± 0.076 |
| G5A | -0.064 ± 0.054 |
| E3Q | 0.098 ± 0.066 |
| E3K | -0.096 ± 0.074 |
| E3M | -0.073 ± 0.071 |
| E3G | -0.044 ± 0.041 |
| E3C | -0.141 ± 0.078 |
| E3V | -0.162 ± 0.057 |
| E3D | -0.455 ± 0.11 |
| E3R | -0.366 ± 0.044 |
| E3N | 0.097 ± 0.083 |
| E3T | -0.029 ± 0.042 |
| E3W | -0.35 ± 0.089 |

| Variant | abundance fitness |
| --- | --- |
| E3F | -0.109 ± 0.098 |
| E3Y | -0.07 ± 0.092 |
| E3I | -0.15 ± 0.11 |
| E3L | -0.421 ± 0.1 |
| E3A | -0.251 ± 0.057 |
| I2C | -0.217 ± 0.094 |
| I2H | -0.326 ± 0.16 |
| I2S | -0.166 ± 0.067 |
| I2R | -0.141 ± 0.031 |
| I2P | -0.953 ± 0.16 |
| I2F | -0.129 ± 0.095 |
| I2E | -0.037 ± 0.094 |
| I2M | -0.044 ± 0.074 |
| I2W | -0.271 ± 0.1 |
| I2A | -0.152 ± 0.05 |
| I2Q | 0.178 ± 0.11 |
| I2K | -0.012 ± 0.082 |
| I2D | 0.035 ± 0.089 |
| I2L | 0.11 ± 0.064 |
| I2Y | -0.326 ± 0.14 |
| I2T | -0.214 ± 0.099 |
| I2V | -0.334 ± 0.064 |

Variants of: B2
Experiment: as above
Details: Homo sapiens

| Variant | abundance fitness |
| --- | --- |
| K26W | 0.023 ± 0.18 |
| K26T | -0.074 ± 0.38 |
| V11T | -0.336 ± 0.13 |
| L47E | -0.307 ± 0.081 |
| L47T | -0.101 ± 0.056 |
| C9Y | -0.739 ± 0.33 |
| C9G | -0.916 ± 0.5 |
| S33D | 0.035 ± 0.078 |
| S33E | 0.036 ± 0.061 |
| S33F | -0.017 ± 0.061 |
| E49K | -0.279 ± 0.1 |
| E49I | -0.468 ± 0.15 |
| E49T | -0.345 ± 0.075 |
| E49C | -0.201 ± 0.067 |
| E49M | -0.168 ± 0.067 |
| E49Y | -0.127 ± 0.053 |
| E49P | 0.023 ± 0.075 |
| D46F | -0.221 ± 0.11 |
| D46P | -0.268 ± 0.087 |
| D46N | 0.029 ± 0.11 |
| D46K | 0.122 ± 0.074 |
| D46Q | 0.085 ± 0.045 |
| A57C | -0.124 ± 0.11 |
| A57D | 0.04 ± 0.18 |
| A57I | 0.216 ± 0.29 |
| A57V | -0.14 ± 0.077 |

| Variant | abundance fitness |
| --- | --- |
| H54W | -0.064 ± 0.087 |
| H54F | -0.602 ± 0.34 |
| P7S | 0.075 ± 0.41 |
| P7R | -0.635 ± 0.31 |
| P7L | -0.065 ± 0.2 |
| P7E | 0.09 ± 0.22 |
| H75F | -0.087 ± 0.1 |
| H75N | 0.051 ± 0.26 |
| H75Q | 0.089 ± 0.11 |
| H75T | 0.089 ± 0.068 |
| H75K | -0.003 ± 0.1 |
| S56I | -0.113 ± 0.13 |
| S56N | -0.194 ± 0.1 |
| S56P | -0.074 ± 0.095 |
| S56Y | 0.052 ± 0.12 |
| T22L | -0.179 ± 0.11 |
| T22G | -0.353 ± 0.17 |
| T22M | 0.389 ± 0.36 |
| P18I | -0.892 ± 0.29 |
| I13T | -0.329 ± 0.22 |
| I13G | -0.193 ± 0.14 |
| E69Y | -0.328 ± 0.41 |
| E69D | 0.052 ± 0.16 |
| C32F | -0.946 ± 0.3 |
| C32R | -0.967 ± 0.14 |
| C32A | -1.15 ± 0.21 |

| Variant | abundance fitness |
| --- | --- |
| C32H | -0.804 ± 0.39 |
| C32V | -0.746 ± 0.088 |
| C32N | -0.85 ± 0.35 |
| C32L | -0.999 ± 0.13 |
| C32K | -1.09 ± 0.46 |
| K61V | 0.069 ± 0.19 |
| K61Q | 0.097 ± 0.36 |
| K61N | -0.115 ± 0.29 |
| K61T | -0.045 ± 0.3 |
| G58I | -0.003 ± 0.39 |
| G58T | -0.199 ± 0.085 |
| G58E | 0.041 ± 0.089 |
| G58Q | 0.025 ± 0.092 |
| G58L | 0.025 ± 0.078 |
| G58R | -0.165 ± 0.076 |
| C64A | -1.01 ± 0.16 |
| C64R | -0.945 ± 0.11 |
| C64G | -0.935 ± 0.1 |
| C64S | -0.803 ± 0.12 |
| C64V | -0.557 ± 0.081 |
| W16P | -0.471 ± 0.41 |
| R72Q | -0.085 ± 0.12 |
| R72W | -0.168 ± 0.075 |
| R72D | 0.032 ± 0.21 |
| R72S | 0.073 ± 0.071 |
| V40I | -0.081 ± 0.35 |

| Variant | abundance fitness |
| --- | --- |
| V40Y | -0.85 ± 0.32 |
| V40S | -0.456 ± 0.095 |
| R50W | -0.195 ± 0.066 |
| R50K | 0.015 ± 0.093 |
| R50S | 0.092 ± 0.06 |
| R50C | 0.106 ± 0.11 |
| R50I | 0.067 ± 0.11 |
| R50Q | -0.032 ± 0.1 |
| N65K | -0.047 ± 0.081 |
| N65G | 0.012 ± 0.047 |
| N65V | 0.008 ± 0.047 |
| N65M | -0.12 ± 0.085 |
| N65H | 0.003 ± 0.16 |
| N65E | 0.058 ± 0.082 |
| N65Q | -0.181 ± 0.14 |
| I3M | -0.041 ± 0.07 |
| I3N | -0.053 ± 0.15 |
| I3L | -0.112 ± 0.042 |
| I3Y | -0.202 ± 0.098 |
| I3T | -0.102 ± 0.08 |
| S21E | 0.119 ± 0.17 |
| S21H | 0.086 ± 0.35 |
| S21C | 0.015 ± 0.16 |
